Our source for the EC50 values is CN110903395A (SICHUAN KELUN BOTAI BIOMEDICAL CO LTD, dated 2020).

Usually EC50 stands for the concentration giving half of the maximal effect. Read a low EC50 as higher potency in that assay.

T1: Trop-2-mFc (human, UniProt P09758 27-274)
T1 construct: Made in-house by 四川科伦博泰; Coated at 1 μg/ml on the ELISA plate; also called 配体Trop-2-mFc
T1 sequence (looked up): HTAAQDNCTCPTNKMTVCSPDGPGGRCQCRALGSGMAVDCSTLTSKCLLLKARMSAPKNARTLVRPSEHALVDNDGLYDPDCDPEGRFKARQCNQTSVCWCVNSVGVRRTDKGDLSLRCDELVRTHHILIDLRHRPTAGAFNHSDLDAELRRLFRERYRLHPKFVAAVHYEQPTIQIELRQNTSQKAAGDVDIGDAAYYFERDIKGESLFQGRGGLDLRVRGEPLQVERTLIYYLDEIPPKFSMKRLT

B1: 疏水性改造TROP-2抗体M1 (antibody, human IgG1, kappa, V domains shown)
VH: QVQLQQSGSELKKPGASVKVSCKASGYTFTNYGMNWVKQAPGQGLKWMGWINTDSGEPTYTDDFKGRFAFSLDTSVSTAYLQISSLKADDTAVYFCARGGFGSSYWYFDVWGQGSLVTVSS
VL: DIQLTQSPSSLSASVGDRVSITCKASQDVSSAVAWYQQKPGKAPKLLIYSASYRYTGVPDRFSGSGSGTDFTLTISSLQPEDFAVYYCQQHYSTPLTFGAGTKVEIKR
notes: Humanized anti-Trop-2 antibody derived from Sacituzumab by hydrophilic CDR mutations; expressed in CHO-S cells, purified on protein A
B2: Sacituzumab抗体 (antibody, V domains shown)
VH: QVQLQQSGSELKKPGASVKVSCKASGYTFTNYGMNWVKQAPGQGLKWMGWINTYTGEPTYTDDFKGRFAFSLDTSVSTAYLQISSLKADDTAVYFCARGGFGSSYWYFDVWGQGSLVTVSS
VL: DIQLTQSPSSLSASVGDRVSITCKASQDVSIAVAWYQQKPGKAPKLLIYSASYRYTGVPDRFSGSGSGTDFTLTISSLQPEDFAVYYCQQHYITPLTFGAGTKVEIKR
B3: 疏水性改造TROP-2抗体M2 (antibody, human IgG1, kappa, V domains shown)
VH: QVQLQQSGSELKKPGASVKVSCKASGYTFTNYGMNWVKQAPGQGLKWMGWINTDSGEPTYTDDFKGRFAFSLDTSVSTAYLQISSLKADDTAVYFCARGGFGSSYWYFDVWGQGSLVTVSS
VL: DIQLTQSPSSLSASVGDRVSITCKASQDVSSAVAWYQQKPGKAPKLLIYSASYRYTGVPDRFSGSGSGTDFTLTISSLQPEDFAVYYCQQHYITPLTFGAGTKVEIKR
notes: as for B1
B4: 疏水性改造TROP-2抗体M3 (antibody, human IgG1, kappa, V domains shown)
VH: QVQLQQSGSELKKPGASVKVSCKASGYTFTNYGMNWVKQAPGQGLKWMGWINTDSGEPTYTDDFKGRFAFSLDTSVSTAYLQISSLKADDTAVYFCARGGFGSSYWYFDVWGQGSLVTVSS
VL: DIQLTQSPSSLSASVGDRVSITCKASQDVSIAVAWYQQKPGKAPKLLIYSASYRYTGVPDRFSGSGSGTDFTLTISSLQPEDFAVYYCQQHYSTPLTFGAGTKVEIKR
notes: as for B1

The target in the assay is T1, Trop-2-mFc. The experiment in a line: ELISA, Trop-2-mFc coated at 1 μg/ml, detection with HRP-anti human IgG(H+L). On the technique in general: ELISA stands for enzyme-linked immunosorbent assay.
Regarding B1, the concentration giving a half-maximal response (EC50) turned out to be 9.91 nM. The same measure for B2: 13.1 nM. B3 showed a 50% effective concentration (EC50) of 13.9 nM.

Molecule B4 registered an EC50 of 10.8 nM.
